Test results published in patent CN114685654A (GUANGDONG DONGSUNANG PHARMACEUTICAL CO LTD, dated 2022).
Substitutions are numbered along the chain they refer to.

Key:
蛋白B [1] = biological target: T1, 蛋白B; test: sandwich ELISA, antibody coated at 2 μg/mL, detection with HRP mouse anti-human IgG4 Fc
T1 construct: Counter-screen protein; also called FGF21-Fc融合蛋白
T1 chain: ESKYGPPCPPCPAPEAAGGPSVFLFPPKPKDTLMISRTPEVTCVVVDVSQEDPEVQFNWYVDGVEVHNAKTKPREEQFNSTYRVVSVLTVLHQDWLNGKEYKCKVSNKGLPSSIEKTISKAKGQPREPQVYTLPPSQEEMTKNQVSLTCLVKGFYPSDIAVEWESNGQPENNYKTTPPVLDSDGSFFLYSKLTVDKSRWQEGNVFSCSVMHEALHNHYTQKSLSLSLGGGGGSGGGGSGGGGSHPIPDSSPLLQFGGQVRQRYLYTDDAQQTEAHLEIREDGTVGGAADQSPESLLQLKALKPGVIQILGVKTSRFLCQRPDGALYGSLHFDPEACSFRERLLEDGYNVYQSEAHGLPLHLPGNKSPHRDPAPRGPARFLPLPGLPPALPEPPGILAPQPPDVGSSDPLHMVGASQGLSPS

蛋白A [2] = biological target: T2, 蛋白A; test: sandwich ELISA, antibody coated at 2 μg/mL, protein at 5 and 10 ng/mL, detection with HRP mouse anti-human IgG4 Fc
T2 construct: also called FGF21-Fc融合蛋白
T2 chain: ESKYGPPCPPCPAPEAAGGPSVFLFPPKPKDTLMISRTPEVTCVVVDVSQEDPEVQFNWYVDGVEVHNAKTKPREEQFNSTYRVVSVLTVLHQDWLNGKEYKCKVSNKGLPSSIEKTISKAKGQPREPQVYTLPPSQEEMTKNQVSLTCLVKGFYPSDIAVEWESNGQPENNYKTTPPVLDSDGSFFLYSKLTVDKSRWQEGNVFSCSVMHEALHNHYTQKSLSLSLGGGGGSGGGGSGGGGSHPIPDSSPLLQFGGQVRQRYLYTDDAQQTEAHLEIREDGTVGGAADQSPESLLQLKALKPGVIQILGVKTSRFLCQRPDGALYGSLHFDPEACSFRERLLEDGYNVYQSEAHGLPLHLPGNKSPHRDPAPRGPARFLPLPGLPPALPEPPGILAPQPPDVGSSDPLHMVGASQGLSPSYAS

蛋白B [3] = biological target: T1, 蛋白B; test: ELISA, protein coated
蛋白A [4] = biological target: T2, 蛋白A; test: ELISA, protein coated at 0.1, 1, 5 μg/mL, antibody 1 μg/mL
蛋白B [5] = biological target: T1, 蛋白B; test: indirect ELISA, hybridoma supernatant on coated protein
蛋白A [6] = biological target: T2, 蛋白A; test: as above

B1: MM21H (antibody, V domains shown)
VH: QIQLVQSGPELKKTGETVKMSCKASGYTFTNYGMNWVKQAPGKGLKLMGWINTYTGKPTYADDFKGRFAFSLETSASTAYLQINNLKNEDTATYFCATNYYDYDVAYWGQGTLVTVSA
VL: DIVMTQAAFSNPVTLGTSASISCRSSKSLLHSNGITYLYWFLQKPGQSPQVLIYQMSSLASGVPDRFSSSGSGTDFTLRISRVEAEDVGVYYCAQTLELPTFGGGTKLEIK
notes: also called MM21H鼠源单克隆抗体
蛋白B [1]
  binding result: no binding (tested: 5ng/mL、10ng/mL)
蛋白A [2]
  binding result: binds

B2: MM24T (antibody, mouse IgG1, kappa, V domains shown)
VH: B1 VH with T14P, M20I, I83L, V105I, T115A
VL: DIVMTQAAFSNPVTLGTSASISCRSSKSLLHSNGITYLYWFLQKPGQSPQVLIYQMSNLASGVPDRFSSSGSGTDFTLRISRVEAEDVGVYYCAQTLELPTFGGGTKLEIKR
notes: only the CDRs are; also called MM24T重组抗体; MM24T抗体
蛋白B [3]
  binding result: no binding (tested: antibody 1μg/mL; coating 0.1、1、5μg/mL)
蛋白A [4]
  binding result: binds

B3: MM21T (antibody, mouse IgG1, kappa, V domains shown)
VH: B1 VH
VL: B2 VL with N58S
notes: only the CDRs are; also called MM21T重组抗体; MM21T抗体
蛋白B [3]
  binding result: no binding (tested: antibody 1μg/mL; coating 0.1、1、5μg/mL)
蛋白A [4]
  binding result: binds

B4: MM24H (antibody, V domains shown)
VH: B1 VH with T14P, M20I, I83L, V105I, T115A
VL: B1 VL with S58N
notes: also called MM24H鼠源单克隆抗体
蛋白B [5]
  binding result: no binding
蛋白A [6]
  binding result: binds
